Patent publication US20230129812A1 (ACCELERON PHARMA, published 2023)

T1: activin A (UniProt P08476 311-426)
T1 construct: also called ActA
T1 sequence (looked up): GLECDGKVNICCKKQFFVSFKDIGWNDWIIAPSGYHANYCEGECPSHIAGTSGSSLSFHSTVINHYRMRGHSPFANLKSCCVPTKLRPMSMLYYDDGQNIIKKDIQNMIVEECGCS

T2: GDF8 (UniProt O14793 267-375)
T2 construct: also called myostatin
T2 sequence (looked up): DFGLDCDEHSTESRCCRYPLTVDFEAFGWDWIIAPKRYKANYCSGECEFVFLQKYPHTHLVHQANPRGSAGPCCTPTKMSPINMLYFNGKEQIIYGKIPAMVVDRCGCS

T3: GDF11 (UniProt O95390 299-407)
T3 construct: also called BMP11
T3 sequence (looked up): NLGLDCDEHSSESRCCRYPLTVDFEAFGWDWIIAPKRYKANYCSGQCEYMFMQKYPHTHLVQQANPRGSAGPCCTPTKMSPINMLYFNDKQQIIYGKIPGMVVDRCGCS


Experiments:
activin A [1] = target: T1, activin A; assay: SPR (Biacore); ligand coupled, receptor flowed over (as reported in WO2006/012627)
Excerpt: (§1) Other variants have been generated and tested, as reported in WO2006/012627 (incorporated herein by reference in its entirety). See, e.g., pp. 59-60, using ligands coupled to the device and flowing receptor over the coupled ligands. […] Table 11 showing data with respect to these variants is reproduced below: […]

GDF8 = target: T2, GDF8; assay: SPR (Biacore); receptor-Fc captured by anti-hFc antibody, ligand injected
Experimental: (§2) Binding of certain ActRIIB-Fc proteins and ActRIIB variant Fc fusion polypeptides to ligands was tested in a Biacore™ assay.
(§3) The ActRIIB-Fc variants or wild-type protein were captured onto the system using an anti-hFc antibody. Ligands were injected and flowed over the captured receptor proteins.

activin A [2] = target: T1, activin A; assay: as above
Experimental: as §2, §3

GDF11 = target: T3, GDF11; assay: SPR (Biacore); ligand coupled, receptor flowed over (as reported in WO2006/012627)
Excerpt: as §1

| binding result (activin A [1]) | binding result (GDF11) | Binder | further results |
| --- | --- | --- | --- |
| – | – | Soluble ActRIIB-Fc +15tail (Fc fusion, UniProt Q13705 19-134, looked up, not shown: linker and Fc) SGRGEAETRECIYYNANWELERTNQSGLERCEGEQDKRLHCYASWANSSGTIELVKKGCWLDDFNCYDRQECVATEENPQVYFCCCEGNFCNERFTHLPEAGGPEVTYEPPPTAPT | Kd (activin A [1]): ~26 nM |
| – | – | ActRIIB(K74A 20-134)-hFc (Fc fusion) GRGEAETRECIYYNANWELERTNQSGLERCEGEQDKRLHCYASWRNSSGTIELVAKGCWLDDFNCYDRQECVATEENPQVYFCCCEGNFCNERFTHLPEAGGPEVTYEPPPTAPTGGGTHTCPPCPAPELLGGPSVFLFPPKPKDTLMISRTPEVTCVVVDVSHEDPEVKFNWYVDGVEVHNAKTKPREEQYNSTYRVVSVLTVLHQDWLNGKEYKCKVSNKALPVPIEKTISKAKGQPREPQVYTLPPSREEMTKNQVSLTCLVKGFYPSDIAVEWESNGQPENNYKTTPPVLDSDGSFFLYSKLTVDKSRWQQGNVFSCSVMHEALHNHYTQKSLSLSPGK | Kd (GDF8): 0.0718 nM; koff (GDF8): 2.03e-05 s⁻¹ |
| – | – | ActRIIB(P129S, P130R 20-134)-hFc (Fc fusion) GRGEAETRECIYYNANWELERTNQSGLERCEGEQDKRLHCYASWRNSSGTIELVKKGCWLDDFNCYDRQECVATEENPQVYFCCCEGNFCNERFTHLPEAGGPEVTYEPSRTAPTGGGTHTCPPCPAPELLGGPSVFLFPPKPKDTLMISRTPEVTCVVVDVSHEDPEVKFNWYVDGVEVHNAKTKPREEQYNSTYRVVSVLTVLHQDWLNGKEYKCKVSNKALPVPIEKTISKAKGQPREPQVYTLPPSREEMTKNQVSLTCLVKGFYPSDIAVEWESNGQPENNYKTTPPVLDSDGSFFLYSKLTVDKSRWQQGNVFSCSVMHEALHNHYTQKSLSLSPGK | Kd (activin A [2]): 0.0831 nM; koff (activin A [2]): 0.000417 s⁻¹; kon (activin A [2]): 5.02e+06 M⁻¹ s⁻¹; Kd (GDF8): 1.67 nM; koff (GDF8): 0.00018 s⁻¹ |
| – | – | Soluble ActRIIB-Fc WT (64A) (Fc fusion, UniProt Q13705 19-119, looked up, not shown: a dimerising Fc or GST, Whole entry named) SGRGEAETRECIYYNANWELERTNQSGLERCEGEQDKRLHCYASWANSSGTIELVKKGCWLDDFNCYDRQECVATEENPQVYFCCCEGNFCNERFTHLPEA | Kd (activin A [1]): 180 nM; Kd (GDF11): 260 nM |
| no binding | no binding | Soluble ActRIIB-Fc D80M (Table 11) (Fc fusion, UniProt Q13705 19-119, looked up, not shown: a dimerising Fc or GST) SGRGEAETRECIYYNANWELERTNQSGLERCEGEQDKRLHCYASWANSSGTIELVKKGCWLMDFNCYDRQECVATEENPQVYFCCCEGNFCNERFTHLPEA | – |
| – | – | Soluble ActRIIB-Fc WT (64R) (Fc fusion, UniProt Q13705 19-119, looked up, not shown: a dimerising Fc or GST, Whole entry named) SGRGEAETRECIYYNANWELERTNQSGLERCEGEQDKRLHCYASWRNSSGTIELVKKGCWLDDFNCYDRQECVATEENPQVYFCCCEGNFCNERFTHLPEA | Kd (GDF11): 86 nM |
| no binding | no binding | Soluble ActRIIB-Fc D80R (Table 11) (Fc fusion, UniProt Q13705 19-119, looked up, not shown: a dimerising Fc or GST) SGRGEAETRECIYYNANWELERTNQSGLERCEGEQDKRLHCYASWANSSGTIELVKKGCWLRDFNCYDRQECVATEENPQVYFCCCEGNFCNERFTHLPEA | – |
| – | no binding | Soluble ActRIIB-Fc K55A (Table 11) (Fc fusion, UniProt Q13705 19-119, looked up, not shown: a dimerising Fc or GST) SGRGEAETRECIYYNANWELERTNQSGLERCEGEQDARLHCYASWANSSGTIELVKKGCWLDDFNCYDRQECVATEENPQVYFCCCEGNFCNERFTHLPEA | – |
| no binding | no binding | Soluble ActRIIB-Fc D80G (Table 11) (Fc fusion, UniProt Q13705 19-119, looked up, not shown: a dimerising Fc or GST) SGRGEAETRECIYYNANWELERTNQSGLERCEGEQDKRLHCYASWANSSGTIELVKKGCWLGDFNCYDRQECVATEENPQVYFCCCEGNFCNERFTHLPEA | – |
| no binding | no binding | Soluble ActRIIB-Fc D80K (Table 11) (Fc fusion, UniProt Q13705 19-119, looked up, not shown: a dimerising Fc or GST) SGRGEAETRECIYYNANWELERTNQSGLERCEGEQDKRLHCYASWANSSGTIELVKKGCWLKDFNCYDRQECVATEENPQVYFCCCEGNFCNERFTHLPEA | – |
| no binding | no binding | Soluble ActRIIB-Fc D80A (Table 11) (Fc fusion, UniProt Q13705 19-119, looked up, not shown: a dimerising Fc or GST) SGRGEAETRECIYYNANWELERTNQSGLERCEGEQDKRLHCYASWANSSGTIELVKKGCWLADFNCYDRQECVATEENPQVYFCCCEGNFCNERFTHLPEA | – |
| no binding | no binding | Soluble ActRIIB-Fc D80F (Table 11) (Fc fusion, UniProt Q13705 19-119, looked up, not shown: a dimerising Fc or GST) SGRGEAETRECIYYNANWELERTNQSGLERCEGEQDKRLHCYASWANSSGTIELVKKGCWLFDFNCYDRQECVATEENPQVYFCCCEGNFCNERFTHLPEA | – |
| no binding | no binding | Soluble ActRIIB-Fc W78A (Table 11) (Fc fusion, UniProt Q13705 19-119, looked up, not shown: a dimerising Fc or GST) SGRGEAETRECIYYNANWELERTNQSGLERCEGEQDKRLHCYASWANSSGTIELVKKGCALDDFNCYDRQECVATEENPQVYFCCCEGNFCNERFTHLPEA | – |
| no binding | no binding | Soluble ActRIIB-Fc R56A (Table 11) (Fc fusion, UniProt Q13705 19-119, looked up, not shown: a dimerising Fc or GST) SGRGEAETRECIYYNANWELERTNQSGLERCEGEQDKALHCYASWANSSGTIELVKKGCWLDDFNCYDRQECVATEENPQVYFCCCEGNFCNERFTHLPEA | – |
| – | – | Soluble ActRIIB-Fc K74A (Table 11) (Fc fusion, UniProt Q13705 19-119, looked up, not shown: a dimerising Fc or GST) SGRGEAETRECIYYNANWELERTNQSGLERCEGEQDKRLHCYASWANSSGTIELVAKGCWLDDFNCYDRQECVATEENPQVYFCCCEGNFCNERFTHLPEA | Kd (activin A [1]): 4.35 nM; Kd (GDF11): 5.3 nM |
| no binding | no binding | Soluble ActRIIB-Fc D80N (Table 11) (Fc fusion, UniProt Q13705 19-119, looked up, not shown: a dimerising Fc or GST) SGRGEAETRECIYYNANWELERTNQSGLERCEGEQDKRLHCYASWANSSGTIELVKKGCWLNDFNCYDRQECVATEENPQVYFCCCEGNFCNERFTHLPEA | – |
| no binding | no binding | Soluble ActRIIB-Fc E37A (Table 11) (Fc fusion, UniProt Q13705 19-119, looked up, not shown: a dimerising Fc or GST) SGRGEAETRECIYYNANWALERTNQSGLERCEGEQDKRLHCYASWANSSGTIELVKKGCWLDDFNCYDRQECVATEENPQVYFCCCEGNFCNERFTHLPEA | – |
| – | – | ActRIIB(R64K 20-129)-hFc (Fc fusion) GRGEAETRECIYYNANWELERTNQSGLERCEGEQDKRLHCYASWKNSSGTIELVKKGCWLDDFNCYDRQECVATEENPQVYFCCCEGNFCNERFTHLPEAGGPEVTYEPPGGGTHTCPPCPAPELLGGPSVFLFPPKPKDTLMISRTPEVTCVVVDVSHEDPEVKFNWYVDGVEVHNAKTKPREEQYNSTYRVVSVLTVLHQDWLNGKEYKCKVSNKALPVPIEKTISKAKGQPREPQVYTLPPSREEMTKNQVSLTCLVKGFYPSDIAVEWESNGQPENNYKTTPPVLDSDGSFFLYSKLTVDKSRWQQGNVFSCSVMHEALHNHYTQKSLSLSPGK | Kd (activin A [2]): 0.0841 nM; koff (activin A [2]): 0.000628 s⁻¹; kon (activin A [2]): 7.46e+06 M⁻¹ s⁻¹; Kd (GDF8): 2.15 nM; koff (GDF8): 0.000209 s⁻¹ |
